Source: patent publication US20240148882A1 (University of California, published 2024)

T1: mvsFlt 650 kDa LCR (multivalent sFlt-hyaluronic acid conjugate, low conjugation ratio), P17948
T1 chain: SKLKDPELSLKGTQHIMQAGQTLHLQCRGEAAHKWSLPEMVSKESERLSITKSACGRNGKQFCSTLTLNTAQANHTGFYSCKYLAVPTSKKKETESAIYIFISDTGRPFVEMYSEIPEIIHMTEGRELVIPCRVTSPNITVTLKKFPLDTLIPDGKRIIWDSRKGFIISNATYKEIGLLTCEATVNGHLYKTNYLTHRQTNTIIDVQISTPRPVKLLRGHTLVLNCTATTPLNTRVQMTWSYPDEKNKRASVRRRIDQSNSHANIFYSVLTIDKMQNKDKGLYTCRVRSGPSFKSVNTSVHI

T2: VEGF165 (human, UniProt P15692 27-191)
T2 chain: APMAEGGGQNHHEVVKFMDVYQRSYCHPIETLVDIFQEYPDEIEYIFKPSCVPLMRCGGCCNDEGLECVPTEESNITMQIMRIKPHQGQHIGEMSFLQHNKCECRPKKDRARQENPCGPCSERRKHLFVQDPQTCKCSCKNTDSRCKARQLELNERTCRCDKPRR

B1: matrix metalloproteinase-7 (MMP-7) (protein)
chain: YSLFPNSPKWTSKVVTYRIVSYTRDLPHITVDRLVSKALNMWGKEIPLHFRKVVWGTADIMIGFARGAHGDSYPFDGPGNTLAHAFAPGTGLGGDAHFDEDERWTDGSSLGINFLYAATHELGHSLGMGHSSDPNAVMYPTYGNGDPQNFKLSQDDIKGIQKLYGKRSNSRKK
B2: conjugated multivalent scFv anti-VEGF antibody (31 scFv per 860 kDa hyaluronic acid) (other)
scFv: MEIVMTQSPSTLSASVGDRVIITCQASEIIHSWLAWYQQKPGKAPKLLIYLASTLASGVPSRFSGSGSGAEFTLTISSLQPDDFATYYCQNVYLASTNGANFGQGTKLTVLGGGGGSGGGGSGGGGSGGGGSEVQLVESGGGLVQPGGSLRLSCTASGFSLTDYYYMTWVRQAPGKGLEWVGFIDPDDDPYYATWAKGRFTISRDNSKNTLYLQMNSLRAEDTAVYYCAGGDHNSGWGLDIWGQGTLVTVSSSPSTPPTPSPSTPPGGCDDDDKHHHHHH
modifications: covalently conjugated to 860 kDa hyaluronic acid
B3: single-domain camelid (VHH) anti-VEGF antibody, unconjugated (VHH)
VHH: DVQLVESGGGLVQPGGSLRLSCAASGRTFSSYSMGWFRQAPGKEREFVVAISKGGYKYDAVSLEGRFTISRDNAKNTVYLQINSLRPEDTAVYYCASSRAYGSSRLRLADTYEYWGQGTLVTVSS
B4: conjugated multivalent VHH anti-VEGF antibody (28 VHH per 860 kDa hyaluronic acid) (other)
VHH: SNADVQLVESGGGLVQPGGSLRLSCAASGRTFSSYSMGWFRQAPGKEREFVVAISKGGYKYDAVSLEGRFTISRDNAKNTVYLQINSLRPEDTAVYYCASSRAYGSSRLRLADTYEYWGQGTLVTVSSSPSTPPTPSPSTPPGGCDDDDKHHHHHH
modifications: covalently conjugated to 860 kDa hyaluronic acid
B5: single-chain variable fragment (scFv) anti-VEGF antibody, unconjugated (scFv)
scFv: B2 scFv
B6: anti-VEGF VHH-CMC conjugate (~17 VHH per ~700 kDa carboxymethylcellulose) (other)
VHH: B4 VHH
modifications: covalently conjugated to ~700 kDa carboxymethylcellulose
B7: soluble fms-like tyrosine kinase-1 (sFlt), unconjugated (receptor, UniProt P17948 27-328, looked up)
chain: T1 chain
notes: domain: first 3 Ig-like extracellular domains; Expressed in High Five insect cells, about 50 kDa; also called recombinant sFlt; soluble Flt-1 receptor; not shown: tag implied by Ni-NTA purification, not described for the tested protein (the ex)
B8: mvsFlt 300 kDa LCR (multivalent sFlt-hyaluronic acid conjugate, low conjugation ratio) (other, UniProt P17948 27-328, looked up)
chain: T1 chain
modifications: thiolated with 2-iminothiolane and linked through EMCH maleimide to 300 kDa hyaluronic acid
notes: domain: first 3 Ig-like extracellular domains; Protein-polymer conjugate; 10:1 sFlt:HyA feed ratio; final sFlt:HyA 7.9 by SEC-MALS; not shown: tag implied by Ni-NTA purification, not described
B9: mvsFlt 300 kDa HCR (multivalent sFlt-hyaluronic acid conjugate, high conjugation ratio) (other, UniProt P17948 27-328, looked up)
chain: T1 chain
modifications: thiolated with 2-iminothiolane and linked through EMCH maleimide to 300 kDa hyaluronic acid
notes: domain: first 3 Ig-like extracellular domains; Protein-polymer conjugate; 30:1 sFlt:HyA feed ratio; final sFlt:HyA 15.4 by SEC-MALS; not shown: tag implied by Ni-NTA purification, not described
B10: mvsFlt 650 kDa LCR (multivalent sFlt-hyaluronic acid conjugate, low conjugation ratio) (other, UniProt P17948 27-328, looked up)
chain: T1 chain
modifications: thiolated with 2-iminothiolane and linked through EMCH maleimide to 650 kDa hyaluronic acid
notes: domain: first 3 Ig-like extracellular domains; Protein-polymer conjugate; 10:1 sFlt:HyA feed ratio; final sFlt:HyA 5.3 by SEC-MALS; also called 650 kDa LCR mvsFlt; not shown: tag implied by Ni-NTA purification, not described
B11: mvsFlt 650 kDa HCR (multivalent sFlt-hyaluronic acid conjugate, high conjugation ratio) (other, UniProt P17948 27-328, looked up)
chain: T1 chain
modifications: thiolated with 2-iminothiolane and linked through EMCH maleimide to 650 kDa hyaluronic acid
notes: domain: first 3 Ig-like extracellular domains; Protein-polymer conjugate; 30:1 sFlt:HyA feed ratio; final sFlt:HyA 17.1 by SEC-MALS; not shown: tag implied by Ni-NTA purification, not described
B12: mvsFlt 1 MDa LCR (multivalent sFlt-hyaluronic acid conjugate, low conjugation ratio) (other, UniProt P17948 27-328, looked up)
chain: T1 chain
modifications: thiolated with 2-iminothiolane and linked through EMCH maleimide to 1 MDa hyaluronic acid
notes: domain: first 3 Ig-like extracellular domains; Protein-polymer conjugate; 10:1 sFlt:HyA feed ratio; final sFlt:HyA 5.2 by SEC-MALS; not shown: tag implied by Ni-NTA purification, not described
B13: mvsFlt 1 MDa HCR (multivalent sFlt-hyaluronic acid conjugate, high conjugation ratio) (other, UniProt P17948 27-328, looked up)
chain: T1 chain
modifications: thiolated with 2-iminothiolane and linked through EMCH maleimide to 1 MDa hyaluronic acid
notes: domain: first 3 Ig-like extracellular domains; Protein-polymer conjugate; 30:1 sFlt:HyA feed ratio; final sFlt:HyA 14.1 by SEC-MALS; not shown: tag implied by Ni-NTA purification, not described

Assays:
[1] = target: soluble fms-like tyrosine kinase-1 (sFlt), unconjugated (UniProt P17948); assay: cell-based or functional assay
[2] = target: T1, mvsFlt 650 kDa LCR (multivalent …)
VEGF165 [3] = target: T2, VEGF165; assay: competition ELISA (unbound VEGF); multivalent HyA conjugate
VEGF165 [4] = target: T2, VEGF165; assay: competition ELISA (unbound VEGF)
VEGF165 [5] = target: T2, VEGF165; assay: ELISA
VEGF165 [6] = target: T2, VEGF165; assay: ELISA; multivalent CMC conjugate
VEGF165 [7] = target: T3, VEGF165 (human, UniProt P15692-4 27-191); assay: cell-based or functional assay
VEGF165 [8] = target: T3, VEGF165; assay: binding competition ELISA (VEGF165 Quantikine): free VEGF165 captured by the plate antibody
Protocol: The mvsFlt conjugates were analyzed using a VEGF₁₆₅ Quantikine Sandwich ELISA (R&D Systems) to examine the effect of HyA conjugation on sFlt inhibition of VEGF₁₆₅. The assay was carried out according to the manufacturer's instructions. Briefly, VEGF₁₆₅ was added to PBS with varying concentrations of sFlt or mysFlt. Free VEGF₁₆₅ that bound to the capture antibodies on the plate surface were detected using a horseradish peroxidase conjugated detection antibody and quantified using a spectrophotometer at 450 nm.

Row | Binder | IC50, HUVEC Survival (VEGF165 [7]) [µg/mL] | IC50 (VEGF165 [8]) [µg/mL] | further results
1 | B1 | – | – | protein remaining detectable after 12 h with MMP-7 at 1:1 molar ratio of MMP-7 to sFlt (SDS-PAGE, silver stain) [1]: 6.8%; protein remaining detectable after 12 h with MMP-7 at 1:4 molar ratio of MMP-7 to sFlt (SDS-PAGE, silver stain) [1]: 34%; protein remaining detectable after 12 h with MMP-7 at 1:1 molar ratio of MMP-7 to sFlt (SDS-PAGE, silver stain) [2]: 34.8±1.8% of mvsFlt; protein remaining detectable after 12 h with MMP-7 at 1:4 molar ratio of MMP-7 to sFlt (SDS-PAGE, silver stain) [2]: detectable mvsFlt at 74.8±4.9%
2 | B2 | – | – | IC50 (VEGF165 [3]): 47.7 nM
3 | B3 | – | – | IC50 (VEGF165 [4]): 758 nM; IC50 (VEGF165 [5]): 761 nM
4 | B4 | – | – | IC50 (VEGF165 [3]): 812 nM
5 | B5 | – | – | IC50 (VEGF165 [4]): 89.8 nM
6 | B6 | – | – | IC50 (VEGF165 [6]): 8800 nM
7 | B7 | 0.0393 | 0.0038 | –
8 | B8 | 0.0469 | 0.0045 | –
9 | B9 | 0.0444 | 0.0047 | –
10 | B10 | 0.0417 | 0.0039 | –
11 | B11 | 0.0432 | 0.002 | –
12 | B12 | 0.0449 | 0.0022 | –
13 | B13 | 0.0454 | 0.0033 | –
